In patent US20230349919A1 (Regeneron, published 2023):

How the values were obtained:
[1] = target: T1, human IL-4Rα (hIL-4Rα) monomeric protein (human, UniProt P24394 26-232, limits assumed); test: Biacore (SPR)
T1 construct: also called hIL-4Rα antigen; barcoded hIL-4Rα

[2] = target: T1, human IL-4Rα (hIL-4Rα) monomeric protein; test: barcoded-antigen count on source cell (scRNA-seq)
[3] = target: T1, human IL-4Rα (hIL-4Rα) monomeric protein; test: Biacore (SPR); negative log10 of Kd

Kd [1]	REGN560.L15_ab_raw [2]	negLog10Kd [3]	Binder
247 nM	818 counts	6.61	Table 1 Line # 53 antibody (SP_Plasma_cell) (antibody, human IgG4, V domains shown, Cloned with human IgG4/human Igk constants for Kd; barcode counts are of the source cell's own IgG) VH: EIQLVESGGGLVQPGRSLRLSCAASGFTFDDYAMHWVRQAPGKGLEWVSGINWNNGSLGYADSVKGRFTISRDNAKNSLYLQMNSLRTEDTALYYCVKDTGSWASYYGMDVWGHGTTVTVSS VL: DIQMTQSPSSLSASIGDRVTITCRASQGIRNDLGWYQQKPGKAPKRLIYAASSLQSGVPSRFSGSGSGTEFTLTISSLQPEDFATYYCLQHNSYPYTFGQGTKLEIK
13.5 nM	815 counts	7.87	Table 1 Line # 54 antibody (SP_Plasma_cell) (antibody, human IgG4, V domains shown, Cloned with human IgG4/human Igk constants for Kd; barcode counts are of the source cell's own IgG) VH: QVQLVQSGAEVKKPGASVKVSCKASGYTFTNYGISWVRQAPGQGLEWMGWISVYNGNTNYAQKLQGRVTMTTDTSTSTAYMEVRSLRSDDTAVYYCARGVNWNYVFDYWGQGTLVTVSS VL: DIQMTQSPSSLSASVGDRVTITCRASQGIRNDLGWYQQKPGKAPKRLIYVVSSLQSGVPSRFSGSGSGTEFTLTISSLQPEDFATYYCLQHNSYPWTFGQGTKVEIK
197 nM	6230 counts	6.71	Table 1 Line # 37 antibody (SP_B_cell) (antibody, human IgG4, V domains shown, Cloned with human IgG4/human Igk constants for Kd; barcode counts are of the source cell's own IgG) VH: QVHLVESGGDVVQPGRSLRLSCAASGFTFSYYGMHWVRQAPFKGLEWVAVIWYDGSNKYYADSVKGRFTITRDNSKNTVYLQMNSLRAEDTAIYYCARWGGFGVTGTHLDYWGQGTLVTVSS VL: DIQLTQSPSLLSASVGDRVTITCWASQDIAGHFAWYQQKPGTVPKLLIYAISTLDSGVPSRFSGSRSGTEFTLTISSLQPEDFATYYCQHLNSYPYTFGQGTKLEIK
34.2 nM	6890 counts	7.47	Table 1 Line # 34 antibody (SP_B_cell) (antibody, human IgG4, V domains shown, Cloned with human IgG4/human Igk constants for Kd; barcode counts are of the source cell's own IgG) VH: EVQLVASGGDLVQPGRSLRLSCAASGFTFDDFGMHWVRQAPGKGLEWVSGISWNGGHMGYAASVKGRFTMSRDNAKNSLYLQMNSLRVEDTALYYCVKEFSSSWYGFFDLWGRGTLVTVSS VL: DIQMTQSPSSLSASVGDRVTITCRASQGLGNSVAWYQQKPGQIPRLLISAAASLQSGVPSRFSGSGSGTDFTLTISSLQPEDVATYYCQNYNSAPRTFGQGTNVEIK
49.2 nM	1520 counts	7.31	Table 1 Line # 46 antibody (SP_Plasma_cell) (antibody, human IgG4, V domains shown, Cloned with human IgG4/human Igk constants for Kd; barcode counts are of the source cell's own IgG) VH: EVQLEASGGDLVQPGRSLRLSCAASGFIFDDFGMHWVRQAPGKGLEWVSGISWNGGHIGYADSVKGRFTISRDNAKNSLYLQMNSLRAEDTALYYCAKEHSSSWYGFFDFWGRGTLVTVSS VL: DIQMTQSPSSLSASVGDRVTITCRASQGLSNSVAWYQQKPGQIPRLLISAAASLQSGVPSRFSGSGSGTDFTLTISRLQPEDVATYYCQNYNSAPRTFGQGTNVEIK
118 nM	5520 counts	6.93	Table 1 Line # 40 antibody (SP_Plasma_cell) (antibody, human IgG4, V domains shown, Cloned with human IgG4/human Igk constants for Kd; barcode counts are of the source cell's own IgG) VH: QVQLQESGPGLVKPSETLSLTCTISGGSISTYYWSWIRQPPGKGLEWIGYIYYSGNTNYNPSLKSRVTISVDTSKNQFSLKLNSVTAADTAVYYCARHRGSYVYGMDVWGQGTTVTVSS VL: DIQMTQSPSSLSASLVDRVTITCRASQTISSYLNWYQQKPGKAPKLLIYGASILQSGVPSRFSGSGSGTDFTLTISSLQPEDHAVYFCQQSYSSPTFGGGTKVEIK
41.4 nM	2170 counts	7.38	Table 1 Line # 18 antibody (BM_Plasma_cell) (antibody, human IgG4, V domains shown, Cloned with human IgG4/human Igk constants for Kd; barcode counts are of the source cell's own IgG) VH: EVQLVQSGAEVKKPGESLKISCKGSGYRFTTNWIGWVRQMPGKGLEWMGIIYPDDSDTRYSPSFQGQVTISADKSINTAYLHWNSLKSSDTAIYYCARGANWFDPWGQGTLVTVSS VL: EIVLTQSPGILSLSPGKRATLSCRASQSVSSNFLAWYQQKPGQAPRLLIYGTSSRANGIPDRFSGSGSGTDFTLTISGLEPEDFAEYYCQQYGSSVTFGQGTRLEIK
127 nM	2080 counts	6.9	Table 1 Line # 42 antibody (SP_Plasma_cell) (antibody, human IgG4, V domains shown, Cloned with human IgG4/human Igk constants for Kd; barcode counts are of the source cell's own IgG) VH: EVQLLESGGGLVQPGGSLRLSCAASGFTFISYTLSWVRQAPGKGLEWVSAISGSGGSTYYVDSVKGRFTISRDNSRNTLYLQMNSLRAEDTAVYYCAKDLGSTVYWGQGTLVTVSS VL: not shown
416 nM	11200 counts	6.38	Table 1 Line # 1 antibody (BM_Plasma_cell) (antibody, human IgG4, V domains shown, Cloned with human IgG4/human Igk constants for Kd; barcode counts are of the source cell's own IgG) VH: EVQLVESGGGLVKPGGSLRLSCAASGFTFSSYSMNWVRQAPGKGLEWVSSISSSSSYIYYADSVKGRFTISRDNAKNSLYLQMNSLRAEDTAVYYCASLAARPFWGQGTMVTVSS VL: DIQMTQSPSSVSASVGDRVTITCRASQGISSWLAWYQQKPGRAPKLLIYAASSLQSGVPSRFSGSGSGTDFTLTISSLQPEDFATYYCQQANSFPLTFGGGTKVEIK
29.3 nM	6710 counts	7.53	Table 1 Line # 35 antibody (SP_B_cell) (antibody, human IgG4, V domains shown, Cloned with human IgG4/human Igk constants for Kd; barcode counts are of the source cell's own IgG) VH: EVQLVESGGGLVKPGGSLRLSCAASGFTFSSYSMNWVRQAPGKGLEWVSSISSSSSYIYYADSVKGRFTISRDNAKNSLYLQMNSLRAEDTAVYYCARDRSSSPLENWGQGTLVTVSS VL: DIQMTQSPSSVSASVGDRVTITCRASQGISSWLAWYQQKPGKAPKLLIYAASSLQSGVPSRFSGSGSGTDFTLTISSLQPEDFATYYCQQANSFPITFGQGTRLEIK
161 nM	6540 counts	6.79	Table 1 Line # 2 antibody (BM_Plasma_cell) (antibody, human IgG4, V domains shown, Cloned with human IgG4/human Igk constants for Kd; barcode counts are of the source cell's own IgG) VH: EVRLVESGGGLVQPGRSLRLSCAASGFTFDDYAMHWVRQAPGRGLEWVSGISWKGDALGYADSVKGRFTISRDNAKNSLYLQMSSLRAEDTALYYCAKDTGSYHYYYGLDVWGQGTTVAVSS VL: DIQMTQSPSSLSASVGDRVTITCRASQGIRTDLGWYQQKPGKAPKRLIYAASNLHGGVPSRFSGTGSGTDFTLTISSLQPEDFATFFCLQHYSYPLTFGGGTKVEIK
150 nM	2460 counts	6.82	Table 1 Line # 41 antibody (SP_Plasma_cell) (antibody, human IgG4, V domains shown, Cloned with human IgG4/human Igk constants for Kd; barcode counts are of the source cell's own IgG) VH: EVQLVESGGGLVQPGRSLRLSCAASGFTFDDYAMHWVRQAPGRGLEWVSGISWKGDALGYADSVKGRFTISRDNAKNSLYLQMSSLRAEDTALYYCAKDTGSYHYYYGLDVWGQGTTVTVSS VL: DIQMTQSPSSLSASVGDRVTITCRASQGIRNDLGWYQQKPGKAPERLIYAASNLQSGVPSRFSGSGSGTEFTLTISSLQPEDFATFYCLQHYSYPLTFGGGTKVEIK
58.2 nM	2930 counts	7.24	Table 1 Line # 13 antibody (BM_Plasma_cell) (antibody, human IgG4, V domains shown, Cloned with human IgG4/human Igk constants for Kd; barcode counts are of the source cell's own IgG) VH: EVQLVESGGEMIRPGGSLRLSCAASGFIFDDYGMSWIRQAPGKGLEWVSGINWNGGHTGYSDSVKGRFTISRDNAKNSLYLQMNSLRAEDTALYHCVRDSSSSWYGVFDYWGQGTLVTVSS VL: DIQMTQSPSSLSASVGDRVTITCRASQGISNSLAWYQQKPGTVPKLLIFAASTLLSGIPSRFSGGGSGTDFTLTISSLQPEDVATYYCQNYNSAPRTFGQGTKVEIK
15.5 nM	4140 counts	7.81	Table 1 Line # 7 antibody (BM_Plasma_cell) (antibody, human IgG4, V domains shown, Cloned with human IgG4/human Igk constants for Kd; barcode counts are of the source cell's own IgG) VH: EVQLVESGGGLVQPGRSLRLSCAASGFTFDDYAMHWVRQAPGKGLEWVSGISWNGASIGYADSLKGRFTISRDNAKNSLYLQMNSLRSEDTALFYCARDYSSAWYGYFDYWGQGTLVTVSS VL: DIQMTQSPSSLSASVGDRVTITCRASQDISNYLAWYQQKPGKVPKLLIYAASTLQSGVPSRFSGSGSGTDFTLTISSLQPEDVATYYCQNYNSVPRTFGQGTKVEIK
8.04 nM	2370 counts	8.09	Table 1 Line # 16 antibody (BM_Plasma_cell) (antibody, human IgG4, V domains shown, Cloned with human IgG4/human Igk constants for Kd; barcode counts are of the source cell's own IgG) VH: EVQLVESGGGLVQPGRSLRLSCAASGFTFDDYGMHWVRQAPGKGLEWVSGISWNSGHIGYADSVKGRFTISRDNAKNSLNLQMNSLRAEDTALYYCAKDISSSWYGYFDLWGRGTLVTVSS VL: DIQMTQSPSSLSASVGDRVTITCRASQGISNFLAWFQQKPGKVPKLLIYAASTLQSGVPSRFSGSGSGTDFTLTISSLQPEDVATYYCQEYNSAPRTFGQGTKVEIK
19.9 nM	2580 counts	7.7	Table 1 Line # 15 antibody (BM_Plasma_cell) (antibody, human IgG4, V domains shown, Cloned with human IgG4/human Igk constants for Kd; barcode counts are of the source cell's own IgG) VH: EVQLVESGGALVQPGRSLRLSCAASGFAFDDYAMHWVRQAPGKGLEWVSGISWNGASLGYADSLKGRFTISRDNAKNSLYLQMNSLRSEDTALFYCARDYSSAWYGYFDYWGQGTLVTVSS VL: DIQMTQSPSSLSASVGDRVTITCRASQDISNYLAWYQQKPGKVPKLLIYAASTLQSGVPSRFSGSGSGTDFTLTISSLQPQDVATYYCQNYNSVPRTFGQGTKVEIK
27.5 nM	3210 counts	7.56	Table 1 Line # 11 antibody (BM_Plasma_cell) (antibody, human IgG4, V domains shown, Cloned with human IgG4/human Igk constants for Kd; barcode counts are of the source cell's own IgG) VH: EVQLVESGGGLVQPGRSLRLSCAASGFTFDDYAMHWVRQAPGKGLEWVSGISWNSGSIGYADSVKGRFTISRDNAKNSLYLQMNSLRAEDTALYYCARDYSSAWYGYFDSWGQGTLVTVSS VL: DIQMTQSPSSLSASVGDRVTITCRASQGINNYLAWYQQKPGKIPKLLIFTASTLQSGVPSRFSGSGSGTDFTLTINSLQPEDVATYYCQNYNSVPRTFGQGTKVEIK
133 nM	8520 counts	6.88	Table 1 Line # 31 antibody (SP_B_cell) (antibody, human IgG4, V domains shown, Cloned with human IgG4/human Igk constants for Kd; barcode counts are of the source cell's own IgG) VH: EVQLVESGGGLVQPGRSLRLSCAASGFTFDDYAMHWVRQAPGKGLEWVSGISWNSGNIGYADSVKGRFTISRDNANNSLYLQMNSLRAEDTALYYCAKDYSSAWYGYFDYWGQGTLVTVSS VL: not shown
158 nM	5050 counts	6.8	Table 1 Line # 4 antibody (BM_Plasma_cell) (antibody, human IgG4, V domains shown, Cloned with human IgG4/human Igk constants for Kd; barcode counts are of the source cell's own IgG) VH: EVQLVESGGGLVQPGRSLRLSCAASGFTFDDFAMHWVRQAPGKGLEWVSGISWNSGSIGYADSVKGRFTISRDNAKNSLYLQMNSLRAEDTALYYCTKDSSSSWYGYFDLWGRGTLVTVSS VL: not shown
132 nM	1200 counts	6.88	Table 1 Line # 49 antibody (SP_Plasma_cell) (antibody, human IgG4, V domains shown, Cloned with human IgG4/human Igk constants for Kd; barcode counts are of the source cell's own IgG) VH: EVHLLESGGGFIQPGGSLRLSCAASGFTFSTYAMNWVRLAPGKGLEWVSTISGSGGFTSYTDSVQGRFTISRDNSKNKLYLQINNLTAEDTAVYYCAKDRRIVGATGFDYWGQGALVTVSS VL: DIQMTQSPSSLSASAGDRVTITCRASQSISSYLNWYQQKPGKAPKLLIYAASSLQSGVPSRFSGSGSGTDFTLTISSLQPEDSATYYCQQSYGFHTFGQGTRLEIK
